From patent US11230581B2, “Peptides and combination of peptides for use in immunotherapy against ovarian cancer and other cancers” (Immatics Biotechnologies GmbH, priority 2015, dated 2022)

Target: HLA-A*02:01 (Homo sapiens, UniProt P04439, D140Y/D185E/D98H/E176V/E277Q/G131W/G231S/I119V/I121R/I166T/I218V/L300P/L318F/N151K/N90K/P208A/P217A/Q86G/Q94H/R138H/R169H/T345S)
Assay: MHC binding assay (UV-ligand exchange, β2m ELISA, peptide exchange yield)
Conditions: binding of HLA-class I restricted peptides to HLA-A*02:01, UV-ligand exchange
Outline: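 Peptide-MHC complexes formed by UV-ligand exchange, cleaving a UV-sensitive placeholder peptide in favour of the test peptide. Exchange yield measured by ELISA: monomers diluted 100-fold onto streptavidin-coated plates, 1 h 37 °C, detected with 2 ug/ml HRP anti-β2m and TMB, absorbance at 450 nm.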

| Peptide exchange (MHC class I binding score, peptide exchange yield) | Substance |
| --- | --- |
| “++” (≥20% = ++) | 355 (SIQQSIERLLV; listed as Homo sapiens) [compound 355] |
| “++” (≥20% = ++) | 333 (FLPDANSSV; listed as Homo sapiens) [compound 333] |
| “++” (≥20% = ++) | 375 (SLTETIEGV; listed as Homo sapiens) [compound 375] |
| “++” (≥20% = ++) | 207 (GLTSTNAEV; listed as Homo sapiens) [compound 207] |
| “+++” (≥50 = +++) | 595 (VLLSIYPRV; listed as Homo sapiens) [compound 595] |
| “++” (≥20% = ++) | 222 (NLIENVQRL; listed as Homo sapiens) [compound 222] |
| “+++” (≥50 = +++) | 90 (TLLQIIETV; listed as Homo sapiens) [compound 90] |
| “+++” (≥50 = +++) | 199 (ALQDVPLSSV; listed as Homo sapiens) [compound 199] |
| “+++” (≥50 = +++) | 214 (FLLDLDPLLL; listed as Homo sapiens) [compound 214] |
| “+++” (≥50 = +++) | 189 (ALQRKLPYV; listed as Homo sapiens) [compound 189] |
| “+++” (≥50 = +++) | 582 (TLCDVILMV; listed as Homo sapiens) [compound 582] |
| “+++” (≥50 = +++) | 11 (KIFEMLEGV; listed as Homo sapiens) [compound 11] |
| “+++” (≥50 = +++) | 73 (NIFDLQIYV; listed as Homo sapiens) [compound 73] |
| “+++” (≥50 = +++) | 519 (GLLHLTLLL; listed as Homo sapiens) [compound 519] |
| “+++” (≥50 = +++) | 351 (SLIPNLRNV; listed as Homo sapiens) [compound 351] |
| “++” (≥20% = ++) | 221 (ALYEEGLLL; listed as Homo sapiens) [compound 221] |
| “++” (≥20% = ++) | 191 (LLQEGQALEYV; listed as Homo sapiens) [compound 191] |
| “+++” (≥50 = +++) | 198 (KTINKVPTV; listed as Homo sapiens) [compound 198] |
| “+++” (≥50 = +++) | 120 (ALLGIPLTLV; listed as Homo sapiens) [compound 120] |
| “++++” (≥75% = ++++) | 19 (FMVDNEAIYDI; listed as Homo sapiens) [compound 19] |
| “++++” (≥75% = ++++) | 104 (STMEQNFLL; listed as Homo sapiens) [compound 104] |
| “++” (≥20% = ++) | 36 (YVLEDLEVTV; listed as Homo sapiens) [compound 36] |
| “++” (≥20% = ++) | 381 (FIDEAYVEV; listed as Homo sapiens) [compound 381] |
| “++” (≥20% = ++) | 258 (ELAERVPAI; listed as Homo sapiens) [compound 258] |
| “+++” (≥50 = +++) | 50 (SLSELEALM; listed as Homo sapiens) [compound 50] |

| Peptide exchange (MHC class I binding score, peptide exchange yield) | Substance |
| --- | --- |
| “+++” (≥50 = +++) | 283 (ALYIGDGYVIHLA; listed as Homo sapiens) [compound 283] |
| “++” (≥20% = ++) | 459 (ALITEVVRL; listed as Homo sapiens) [compound 459] |
| “+++” (≥50 = +++) | 202 (ALLDQQGSRWTL; listed as Homo sapiens) [compound 202] |
| “+++” (≥50 = +++) | 457 (SLLPGNLVEKV; listed as Homo sapiens) [compound 457] |
| “+++” (≥50 = +++) | 123 (NLWDLTDASVV; listed as Homo sapiens) [compound 123] |
| “+++” (≥50 = +++) | 528 (SVAEGRALMSV; listed as Homo sapiens) [compound 528] |
| “++” (≥20% = ++) | 133 (KVLSNIHTV; listed as Homo sapiens) [compound 133] |
| “+++” (≥50 = +++) | 623 (YLVEDIQHI; listed as Homo sapiens) [compound 623] |
| “+++” (≥50 = +++) | 521 (MLLTKLPTI; listed as Homo sapiens) [compound 521] |
| “+++” (≥50 = +++) | 282 (LLADVVPTT; listed as Homo sapiens) [compound 282] |
| “+++” (≥50 = +++) | 326 (FLPEALDFV; listed as Homo sapiens) [compound 326] |
| “++” (≥20% = ++) | 570 (ALANQIPTV; listed as Homo sapiens) [compound 570] |
| “+++” (≥50 = +++) | 98 (LIIDQADIYL; listed as Homo sapiens) [compound 98] |
| “+++” (≥50 = +++) | 76 (ILIDSIYKV; listed as Homo sapiens) [compound 76] |
| “++” (≥20% = ++) | 185 (FLIDDKGYTL; listed as Homo sapiens) [compound 185] |
| “+++” (≥50 = +++) | 245 (SMIDDLLGV; listed as Homo sapiens) [compound 245] |
| “++” (≥20% = ++) | 548 (ALWENPESGEL; listed as Homo sapiens) [compound 548] |
| “++” (≥20% = ++) | 275 (YLVYILNEL; listed as Homo sapiens) [compound 275] |
| “+++” (≥50 = +++) | 443 (GLWEIENNPTV; listed as Homo sapiens) [compound 443] |
| “+++” (≥50 = +++) | 29 (KMLGIPISNILMV; listed as Homo sapiens) [compound 29] |
| “++” (≥20% = ++) | 455 (SLLKEPQKVQL; listed as Homo sapiens) [compound 455] |
| “++++” (≥75% = ++++) | 310 (FLVDTPLARA; listed as Homo sapiens) [compound 310] |
| “+++” (≥50 = +++) | 69 (FQLDPSSGVLVTV; listed as Homo sapiens) [compound 69] |
| “++++” (≥75% = ++++) | 621 (VLMDRLPSLL; listed as Homo sapiens) [compound 621] |
| “++” (≥20% = ++) | 93 (LLQAIKLYL; listed as Homo sapiens) [compound 93] |
